According to US20260232828A1, “LIGAND-CYTOTOXICITY DRUG CONJUGATES AND PHARMACEUTICAL USES THEREOF” (HANSOH BIO LLC, priority 2023, published 2026):
Values belong to the molecule of their own block, whether it stands above or below them.

Assays:
[1] = biological target: human CDH17 His Tag (Sino biological, catalog number 11360-H08H) (human) (UniProt Q12864); assay: Octet BLI, antibody on AHC biosensor, antigen in solution
[2] = biological target: human CDH17 as originally expressed in cells (cell surface CDH17 on AsPC1, GP2d and other cancer cell lines) (human) (UniProt Q12864); assay: flow cytometry competition on AsPC1 cells: unlabelled HBMAB81 0.03-1800 nM against 0.97 nM HBMAB81-AF647, MFI
[3] = biological target: human CDH17 as originally expressed in cells (cell surface CDH17 on AsPC1, GP2d and other cancer cell lines) (human) (UniProt Q12864); assay: flow cytometry, labelled antibody on AsPC1 cells
[4] = biological target: T1, human CDH17 as originally expressed in cells (cell surface CDH17 on AsPC1, GP2d and other cancer cell lines) (human, UniProt Q12864 23-832); assay: cell-based or functional assay
[5] = biological target: T1, human CDH17 as originally expressed in …; assay: flow cytometry titration on CDH17 positive AsPC1 cells
Method: (§1) To determine the binding of recombinant antibody to cell surface CDH17 receptors, cells were first harvested and resuspended in cell staining buffer (BioLegend, Cat #420201) at 1.3-1.5×10⁶ cells/mL. Then, the cells were treated with human Fc receptor blocking reagent (BioLegend, Cat #422302) on the ice for 10 min. The resulting cell suspension was aliquoted into 50 μL aliquots. […] The cells were incubated on the ice for 1 hour and then washed with cell staining buffer twice. 50 μL of secondary antibody (PE conjugated goat anti-human Fc, eBioscience™, 1:250 dilution) was added to each sample to resuspend the cells. The cells were incubated on the ice for another 20 min. Cells were subsequently washed twice with cell staining buffer and resuspended in 4% PFA to fix the cells. The samples were analyzed using iQue3 to measure the median fluorescence intensity using corresponding channels.

[6] = biological target: T1, human CDH17 as originally expressed in …; assay: flow cytometry titration of recombinant human IgG1 on CDH17-positive AsPC1 cells, 0.001-200 nM, PE anti-human Fc, MFI
Method: as §1

BSA [7] = biological target: T2, BSA (UniProt P02769 25-607); assay: ELISA, plate coated with BSA, hybridoma supernatant
T2 construct: Control coating protein of the ELISA
Method: (§2) ELISA was performed using the DuoSet ELISA Ancillary Kit (R&D System, DY008). ELISA plates were coated with 1 μg/ml of human CDH17 His Tag (Sino biological, catalog number 11360-H08H), or BSA overnight. Excess unbound proteins were washed off by washing the plates three times with the wash buffer before blocking for 1 hour at room temperature. 100 μl CDH17 hybridoma supernatant was added in each well and incubated for 1 hour at room temperature. Excess unbound antibodies were washed off and 100 μl of 1:30000 diluted secondary antibody Goat anti-mouse IgG Fc-HRP (ab5870) was added to each well for another 1 hour. Plates were washed before the addition 50 μL of […] (color A and color B) according to manufacturer's protocol. The reactions were stopped using 25 μL of stop solution. Optical density at 450 nm of samples was measured by a microplate reader (PerkinElmer).

BSA [8] = biological target: T2, BSA; assay: ELISA, plate coated with 1 µg/ml BSA, hybridoma supernatant
Method: as §2

[9] = biological target: T3, human CDH17 His Tag (Sino biological, catalog number 11360-H08H) (human, UniProt Q12864 23-787); assay: ELISA, plate coated with 1 µg/ml human CDH17 His Tag, hybridoma supernatant
T3 construct: Bought recombinant protein; also called hCDH17; human CDH17 protein; not shown: His tag
Method: as §2

[10] = biological target: cynomolgus CDH17-His tag (Acro Biosystems, catalog number CA7-C52H4) (cynomolgus); assay: Octet BLI, antibody on AHC biosensor, antigen in solution
[11] = biological target: T3, human CDH17 His Tag (Sino biological, …); assay: as above
Method: (§3) The affinity between CDH17 antibodies and CDH17 antigens and homologues was determined by Octet (Octet Red 384) instrument. Anti-hIgG Fc Capture (AHC) Biosensors were selected, and the sensors were balanced with buffer solution for 10 min. Subsequently, sensors were dipped into the wells containing 1 μg/ml of CDH17 lead antibodies to load onto the probes. The excess unbound antibodies were washed off. The antigen binding was performed in the wells containing serially diluted human CDH17-His tag (Sino biological, catalog number 11360-H08H), cynomolgus CDH17-His tag (Acro Biosystems, catalog number CA7-C52H4), homologs human CDH6-His tag (Acro Biosystems, catalog number CA6-H5229) and human CDH16-His tag (Sino biological, catalog number 10915-H08H), with concentration ranging from 200 nM to 3.1 nM, for 5 min. Then probes were dipped into wells containing renewed buffer to initiate the dissociation for another 15 min.

[12] = biological target: T4, human CDH16-His tag (Sino biological, catalog number 10915-H08H) (human, UniProt O75309 19-786); assay: Octet BLI, antibody on AHC biosensor, antigen 200 nM to 3.1 nM
T4 construct: Bought recombinant protein; also called hCDH16; not shown: His tag
T4 sequence (looked up): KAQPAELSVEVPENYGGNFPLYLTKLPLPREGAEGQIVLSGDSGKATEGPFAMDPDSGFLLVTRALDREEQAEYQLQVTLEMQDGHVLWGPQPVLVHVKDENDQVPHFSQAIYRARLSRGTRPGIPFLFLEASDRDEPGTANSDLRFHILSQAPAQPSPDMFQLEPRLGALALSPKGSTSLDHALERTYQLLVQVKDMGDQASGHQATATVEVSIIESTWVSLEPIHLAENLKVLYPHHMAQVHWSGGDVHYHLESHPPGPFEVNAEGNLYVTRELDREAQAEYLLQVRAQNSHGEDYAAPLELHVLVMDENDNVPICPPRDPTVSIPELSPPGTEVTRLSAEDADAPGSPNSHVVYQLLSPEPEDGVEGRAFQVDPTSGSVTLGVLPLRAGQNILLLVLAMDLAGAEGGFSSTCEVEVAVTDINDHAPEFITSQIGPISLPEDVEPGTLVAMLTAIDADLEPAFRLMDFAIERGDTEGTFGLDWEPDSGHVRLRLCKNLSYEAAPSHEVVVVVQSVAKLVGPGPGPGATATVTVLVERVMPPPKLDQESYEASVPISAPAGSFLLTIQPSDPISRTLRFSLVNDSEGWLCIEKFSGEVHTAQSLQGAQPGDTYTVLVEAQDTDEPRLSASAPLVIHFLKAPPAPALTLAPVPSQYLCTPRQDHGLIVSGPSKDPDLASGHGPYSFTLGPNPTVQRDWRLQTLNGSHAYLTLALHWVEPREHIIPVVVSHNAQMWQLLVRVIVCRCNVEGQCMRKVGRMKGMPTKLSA
Method: as §3

[13] = biological target: T5, human CDH6-His tag (Acro Biosystems, catalog number CA6-H5229) (human, UniProt P55285 54-615); assay: as above
T5 construct: Bought recombinant protein; also called hCDH6; not shown: His tag
T5 sequence (looked up): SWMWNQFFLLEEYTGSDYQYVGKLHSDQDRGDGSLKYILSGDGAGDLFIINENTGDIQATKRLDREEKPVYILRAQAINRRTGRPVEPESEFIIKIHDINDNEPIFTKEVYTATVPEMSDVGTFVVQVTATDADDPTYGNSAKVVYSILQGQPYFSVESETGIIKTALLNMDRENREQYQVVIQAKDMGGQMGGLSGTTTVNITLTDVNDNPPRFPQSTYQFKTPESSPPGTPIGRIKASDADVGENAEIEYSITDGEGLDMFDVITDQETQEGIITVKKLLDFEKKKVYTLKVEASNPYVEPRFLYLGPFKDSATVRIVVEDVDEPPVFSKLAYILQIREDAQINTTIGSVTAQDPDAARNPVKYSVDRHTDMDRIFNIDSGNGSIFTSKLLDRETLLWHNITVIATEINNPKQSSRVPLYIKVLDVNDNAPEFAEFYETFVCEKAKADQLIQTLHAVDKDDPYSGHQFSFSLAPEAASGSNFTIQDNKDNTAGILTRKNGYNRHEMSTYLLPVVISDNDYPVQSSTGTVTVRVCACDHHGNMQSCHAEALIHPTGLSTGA
Method: as §3

T2 sequence (P02769 25-607 limits assumed): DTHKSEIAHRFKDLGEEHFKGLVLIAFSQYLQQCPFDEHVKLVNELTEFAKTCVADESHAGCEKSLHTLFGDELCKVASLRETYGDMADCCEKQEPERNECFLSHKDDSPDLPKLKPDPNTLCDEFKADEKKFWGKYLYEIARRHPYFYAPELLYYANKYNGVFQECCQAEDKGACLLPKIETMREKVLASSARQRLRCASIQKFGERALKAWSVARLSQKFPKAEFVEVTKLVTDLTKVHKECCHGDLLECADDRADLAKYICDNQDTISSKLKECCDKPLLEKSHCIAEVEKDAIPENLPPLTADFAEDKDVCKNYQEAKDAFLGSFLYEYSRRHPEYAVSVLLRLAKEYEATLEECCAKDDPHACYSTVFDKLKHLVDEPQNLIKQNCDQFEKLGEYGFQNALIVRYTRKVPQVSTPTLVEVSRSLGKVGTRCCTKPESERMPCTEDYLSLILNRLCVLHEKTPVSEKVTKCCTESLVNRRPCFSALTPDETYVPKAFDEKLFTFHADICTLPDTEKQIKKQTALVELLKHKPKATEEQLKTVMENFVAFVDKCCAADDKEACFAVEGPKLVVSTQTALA

B1: 4F9 anti-CDH17 recombinant antibody (human IgG1) (antibody, V domains shown)
VH: QVQLQESGPGLVKPSGTLSLTCAVSGGSISSSNWWSWVRQPPGKGLEWIGEIYHSGSTSYNPSLKSRVTISVDKSKNQFSLKLSSVTAADTAVYYCARNDWGFPLDCWGQGTLVTVSS
VL: DIQMTQSPSSLSASVGDRVTITCRASQSISSYLNWYQQKPGKAPKLLIYAASSLQSGVPSRFSGSGSGTHFTLTISSLQPEDFATYYCQQSHNIPITFGQGTRLEIKR
IC50 of indirect killing assay to evaluate the internalization in AsPC1 cells [4]: 0.29 nM | Kd [5]: 1.69 nM | EC50 (read off the curve) [6]: ~2 nM

B2: 4F9 (hybridoma clone supernatant) (antibody, V domains shown)
VH: QVQLQESGPGLVKPSGTLSLTCAVSGGSISSSNWWSWVRQPPGKGLEWIGEIYHSGSTSYNPSLKSRVTISVDKSKNQFSLKLSSVTAADTAVYYCARNDWGFPLDCWGQGTLVTVSS
VL: DIQMTQSPSSLSASVGDRVTITCRASQSISSYLNWYQQKPGKAPKLLIYAASSLQSGVPSRFSGSGSGTHFTLTISSLQPEDFATYYCQQSHNIPITFGQGTRLEIK
notes: Hybridoma supernatant
OD450 (BSA [7]): 0.051 OD450 | binding result (BSA [8]): no binding | OD450 [9]: 1.52 OD450

B3: 14B12 anti-CDH17 recombinant antibody (human IgG1) (antibody, V domains shown)
VH: QVQLQESGPGLVKPSETLSLTCTVSGGSINTYYRSWIRQPPGKGLEWIGYIYYSGNTNYNPSLKSRVTISADTSKNQFSLNLISVTAADTAMYYCARAQYGEEAFDIWGQGTLVTVSS
VL: DIQMTQSPSSLSASVGDRVTITCRASQSITTYLNWYQQKPGKAPQLLIFAASRLQTGVPSRFSGSGSGTDFTLTISSLLPGDFATYYCQQSYNTPPTFGGGTKVEIKR
Kd [10]: 2.5 nM | koff [10]: 0.00016 s⁻¹ | kon [10]: 620000 M⁻¹ s⁻¹ | IC50 of indirect killing assay to evaluate the internalization in AsPC1 cells [4]: 0.09 nM | Kd [11]: 2.2 nM | koff [11]: 0.000507 s⁻¹ | kon [11]: 230000 M⁻¹ s⁻¹ | Kd [5]: 0.07 nM | binding result [12]: no binding (tested: 200 nM) | binding result [13]: no binding (tested: 200 nM)

B4: 10E11 anti-CDH17 recombinant antibody (human IgG1) (antibody, V domains shown)
VH: EVQLVQSGTEVKKPGESLKISCKDSGYRFSSYWIGWVRQMPGKGLEWMGIIYPGDSDTRYSPSFQGQVTISADKSISTAYLQWRSLKASDTAMYYCARRGWVNYFDYWGQGTLVTVSS
VL: DIQMTQSPSSVSASVGDRVTITCRASQGISNWLGWYQQKPGKAPKLLIYAASSLQSGVPSRFSGSGSGTDFTLTISSLQPEDFATYYCQQANSFPLTFGGGTKVEIKR
Kd [10]: 15 nM | koff [10]: 0.0012 s⁻¹ | kon [10]: 80000 M⁻¹ s⁻¹ | IC50 of indirect killing assay to evaluate the internalization in AsPC1 cells [4]: 0.08 nM | Kd [11]: 14.2 nM | koff [11]: 0.00138 s⁻¹ | kon [11]: 97500 M⁻¹ s⁻¹ | Kd [5]: 0.1 nM | binding result [12]: no binding (tested: 200 nM) | binding result [13]: no binding (tested: 200 nM)

Continued, in another order:

Kd [1]: 4 nM | koff [1]: 0.00136 s⁻¹ | kon [1]: 340000 M⁻¹ s⁻¹ | IC50 (read off the curve) [2]: 0.3 nM
Molecule: HBMAB-81, reformatted mAb with the CDH17 binding arm from bispecific antibody BI 905771 and human IgG1 backbone

EC80 [3]: 0.97 nM
Molecule: HBMAB81-AF647 (HBMAB81 mAb labeled with Alexa Flour 647) (antibody)

Kd [5]: 2.32 nM | EC50 (read off the curve) [6]: ~3 nM
B5: 15A4 anti-CDH17 recombinant antibody (human IgG1) (antibody, V domains shown)
VH: QVQLVESGGGVVQPGRSLRLSCAASGFNFSSYGMHWVRQAPGKGLEWVAFVWYDGSNQNYADSVKGRFTISRDNSNNTLYLQMNSLRAEDTAVYYCARDRYSSGWDVFDYWGQGTLVTVSS
VL: DIQMTQSPSSVSASVGDRVTITCRASQGISSWLAWYQQKPGKAPKLLIFAASSLQSGVPSRFSGSGSGTGFTLTISSLQPEDFATYYCQQAKSFPPTFGQGTKVEIKR
IC50 of indirect killing assay to evaluate the internalization in AsPC1 cells [4]: 1.99 nM
